Test results published in patent WO2001072771A2.

Target: soluble IGF-1 receptor (human) (UniProt P08069)
Assay: phage ELISA

Point of comparison: RGCNDDGGKGWSDDPFYHKLSELICGG [B6Hα-1-A2-IR], ratio over background 14.6. Against it:
- RLFYCGIQALGANLGYSGCV [R20 -4-20A12-IR] — higher, 39.9
- VRGFQGGTVWPGYEWLRNAA [R20β-4-E8-IR] — higher, 34.9
- TSEVQRRSQDNFYDWFVAQVA [A6S-3-E2-IR] — higher, 24.7
- CCTTEMWMDARDDPFYHKLSELVTGG [B6Hα-1-B5-IR] — higher, 20.5
- HLADGQFHEKFYDWFERQISSRCNDC [H2CA-3-E11-IGFR] — lower, 2.2
- GVRAMSFYDALVSVLGLGPSG [20E2B-1-A6-IGFR] — higher, 18.1
- QGGSASFYDAIDRLLRMRIGG [20E2A-4-F11-IGFR] — higher, 18.8
- FYDAIDQLVRGSARAGGTRD [R20α-3-20E2-IR] — higher, 39.9
- LKDGFYDYFWQRLHLGS [NNRPγ-4-B11-IR] — higher, 18.7
- TFYSCLASLLTGTPQPNRGPWERCR [20C-3-G3-IGFR] — higher, 32.3

Target: soluble human insulin receptor (IR-Fc) (human) (UniProt P06213)
Assay: phage ELISA

Point of comparison: TSEVQRRSQDNFYDWFVAQVA [A6S-3-E2-IR], ratio over background 9.8. Against it:
- RLFYCGIQALGANLGYSGCV [R20 -4-20A12-IR] — lower, 2.4
- VRGFQGGTVWPGYEWLRNAA [R20β-4-E8-IR] — lower, 3.6
- CCTTEMWMDARDDPFYHKLSELVTGG [B6Hα-1-B5-IR] — lower, 1
- HLADGQFHEKFYDWFERQISSRCNDC [H2CA-3-E11-IGFR] — lower, 1
- GVRAMSFYDALVSVLGLGPSG [20E2B-1-A6-IGFR] — lower, 1.1
- RGCNDDGGKGWSDDPFYHKLSELICGG [B6Hα-1-A2-IR] — lower, 1
- QGGSASFYDAIDRLLRMRIGG [20E2A-4-F11-IGFR] — lower, 1.3
- FYDAIDQLVRGSARAGGTRD [R20α-3-20E2-IR] — lower, 3.1
- LKDGFYDYFWQRLHLGS [NNRPγ-4-B11-IR] — lower, 1.2
- TFYSCLASLLTGTPQPNRGPWERCR [20C-3-G3-IGFR] — lower, 1.2

Target: soluble IGF-1 receptor (human) (UniProt P08069)
Assay: phage ELISA; non-fat milk blank 0.11

FYDAIDQLVRGSARAGGTRD [R20α-3-20E2-IR] gave an absorbance (405 nm) of 2.15.

Target: soluble human insulin receptor (IR-Fc) (human) (UniProt P06213)
Assay: phage ELISA; non-fat milk blank 0.11

For FYDAIDQLVRGSARAGGTRD [R20α-3-20E2-IR], the absorbance (405 nm) was 1.01.

Target: soluble IGF-1 receptor (human) (UniProt P08069)
Assay: phage ELISA; non-fat milk blank 0.09

For SMFVAGSDRWPGYGVLADWL [F2 phage], the absorbance (405 nm) was 2.08.

Target: soluble human insulin receptor (IR-Fc) (human) (UniProt P06213)
Assay: phage ELISA; non-fat milk blank 0.09

SMFVAGSDRWPGYGVLADWL [F2 phage] showed an absorbance (405 nm) of 1.43.

Target: soluble IGF-1 receptor (human) (UniProt P08069)
Assay: phage ELISA; non-fat milk blank 0.10

VRGFQGGTVWPGYEWLRNAA [R20β-4-E8-IR] showed an absorbance (405 nm) of 2.

Target: soluble human insulin receptor (IR-Fc) (human) (UniProt P06213)
Assay: phage ELISA; non-fat milk blank 0.10

Work on VRGFQGGTVWPGYEWLRNAA [R20β-4-E8-IR] yielded an absorbance (405 nm) of 1.34.
